# Assay results from publication PMC9741107, “The L-Rhamnose Biosynthetic Pathway in Trichomonas vaginalis: Identification and Characterization of UDP-D-Glucose 4,6-dehydratase” (International Journal of Molecular Sciences, 2022).
# B1: UDP-D-glucose 4,6-dehydratase from Trichomonas vaginalis (TvUGD, TVAG_414560) (enzyme, Trichomonas vaginalis (strain G3), UniProt A2GEF2 1-348, looked up)
# chain: MSEDYQPHVILLTGGAGFIGSHVCNHLVLKYPDVKIICLDVMDYCANLRNLEEIMNKPNFLFIKGSINNVELVSYIMKTHAVDTVMHFAAQSHVDRSFGNSLEFTHTNILGTHVLLECAKQNNIKRFIHVSTDEVYGEVLSGCAEEEKSILCPTNPYACSKAGAEFMCQAYIRSFNMPIIITRGNNVFGPKQFPEKVIPKFTLLLKAGHKCCIHGDGSALRNFLHTSDVVQAFDTILHKGKLHQIYNIGTDFEISVLEMTKKLIKVLNMPGKPEDWIEFVPDRAFNDSRYMINSSKLIALGWHANTDFDTLLKETVQWYLDHMDYWKDRDINTYLSPHPIAYAPKTAE
# notes: calculated monomer mass 39 kDa; Residues of the vector may remain after protease cleavage; also called TvGD; UDP-D-Glc 4,6-dehydratase; source: E. coli BL21, GST-fusion from pGEX-6P1, purified on GSH-sepharose 4B, GST removed by precision protease cleavage
# Experiments:
# [1] = biological target: the molecule itself; experiment: SEC; size-exclusion chromatography of the purified protein on a TSK-gel 3000 column, as described in ref. 23; molecular weight calculated from the elution time
# [2] = substrate: Cc1cn([C@H]2C[C@H](O)[C@@H](COP(=O)(O)OP(=O)(O)O[C@H]3O[C@H](CO)[C@@H](O)[C@H](O)[C@H]3O)O2)c(=O)[nH]c1=O; experiment: anion-exchange HPLC of substrate consumption, Michaelis-Menten fit; assay type: biochemical, Trichomonas vaginalis; settings: 50 mM Tris/HCl, 150 mM NaCl, pH 7.0, 25 °C, no added NAD(P)+ or bivalent cations needed
# [3] = substrate: O=c1ccn([C@@H]2O[C@H](CO[P@@](=O)(O)O[P@@](=O)(O)O[C@H]3O[C@H](CO)[C@@H](O)[C@H](O)[C@H]3O)[C@@H](O)[C@H]2O)c(=O)[nH]1; experiment: as above; assay type: biochemical, Trichomonas vaginalis; settings: 50 mM Tris/HCl, 150 mM NaCl, pH 7.0, 25 °C, no added NAD(P)+ or bivalent cations needed
protein,measurement,setting,value
B1,stoichiometry N,[1],2
same,Km,[2],362.8 ± 73.4 µM
same,kcat,[2],0.36 ± 0.03 s⁻¹
same,Km,[3],21.3 ± 3.4 µM
same,kcat,[3],0.39 ± 0.01 s⁻¹
